Reference: the supplement of paper PMC9170038

System: K4 kissing-loop RNA reporter
Assay: apparent KD of K4 kissing-loop reporter; higher = weaker reporter binding
Conditions: Eterna round: R107
Description: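 RNA-MaP round R107: designed RNA switches with theophylline, tryptophan, arginine or FMN aptamers are transcribed on-chip within common flanks. They are titrated with a labelled K4 kissing-loop RNA reporter in RNA-MaP buffer (100 mM Tris pH 7.5, 80 mM KCl, 4 mM MgCl2), without ligand or with the indicated ligand. Median apparent KD per design.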

[1] = input ligand: theophylline 20 uM
[2] = input ligand: tryptophan 2.4 mM
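Also: bound reporter read as fluorescence of individual clusters on recovered sequencing chips by microscopy, with normalized cluster intensities fitted with a binding model.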

Sequence	apparent KD of K4 kissing-loop reporter (input ligand: FMN 200 uM) [nM]	apparent KD of K4 kissing-loop reporter (input ligand: arginine 13.2 mM) [nM]	apparent KD of K4 kissing-loop reporter (input ligand: none) [nM]	apparent KD of K4 kissing-loop reporter [1] [nM]	apparent KD of K4 kissing-loop reporter [2] [nM]
UUUGGUUUCUCGGCCGCCACUCGUGGGAAAUGGGCCUCAGGGAUAUAGUGAUGUUAUGUAAAGAAGAGGACCGGGAGAAGGAAGG [ExTryptoB.Dl]	300	253	306	208	233
GGGAGUAGUGCGGCCGCCACUGAGAAAGAAGAAGAAUAUAGUGAUGUUAUGUGGGAAAGGAAGAACAGGACCGGGCAUUAGAUUU [#21 K4 Tryptophan B Same State]	821	450	488	441	499
AAAUUUAUUAUAUUUGAAUAAAUAUGUGAUACCAGACAUUUAUAAGUCCCUUGGCAGCACAAUGCAGUGAUGUUGCUUAUAAUAA [JR_SSTheophyA_Sub018]	89	110	93	182	73.8
UCGAAAUGCGACUCCUAGUUACACCGGGAAGGAGCGUGGAUAACCGCAGGUAGGUCGCCCGGAAGCCGGACCAGUGAUGUUGGUC [Exclusion Arginine A Gf 28]	207	177	203	274	155
ACGUGCACCAGUGAUGUUGGAAAAUAUGAAGGAGCGGGUGAAAACCCAGGUAGGUCGCAUAAUAGCACGAGCCACGAAAGUGGCA	125	138	157	128	122
GGGUUGAACUGAAGGAGCGAGAAAUAGAAAGUAAGAAGAUAAGCUAGUGAUGUUAGAAAUUCUCAGGUAGGUCGCAGUAAGAAUU [V3]	338	325	354	280	258
UUAGUUGAAAGUGAUACCAGACGAGUGAAGGGAAGAAAUUAAGUUGGAGUGAUGUUCCGCGUCCCUUGGCAGCACUUUGUAAUUU [Exclusion Theophylline B GF 22]	135	151	125	161	121
AGGGAUGUUAAAGGAUAUAGAAAGUGAUGUUAGAAAGUGAGUGAUGUUGAUGUAAGUGAUGUUAUGUUAGAAGGUUAACAAAACG [ab]	229	120	200	215	170
GGUGUGCCAGUGAUGUUGGCAUAAACUGAAGGAGCGCGUGAAAACGCAGGUAGGUCGCAGAACCUUGCCAACUAUUUUAUUCACC [Ex Arginine A K4 25]	181	174	176	236	168
GGCACGGUGACGCGGCUGCCGUGCGCUUGGGAGGAUAUGUUUCGUGACAGAAGGCCCAGUGAUGUUGGGUCUGUUCAAAAGGACU [Edmatianri]	339	104	125	121	104
CUGGGUUGACGAAAAGUCAACAAAUGAGAAGGAGCGCACGAAAGUGCAGGUAGGUCGCUCAGUCCAGUGAUGUUGGAUCAUCCAG [#SwitchBubble 10 #K4Late]	461	602	578	480	361
GCGCGUGUUAAAGGAUAUAGCAGGUGAUACAAGAAAGUGAGUGAUGUUUAUGUAGAUGAUGAUAUGUUAGAAGGUUAACACGCGC [abcdefghijklmnopqr]	784	635	966	688	629
UGGUUUGGAAGUGAUGUUUCUAUAAGUGAUACCAGACAAAAGAAAGUCCCUUGGCAGCACAAUGAUGCCAAGGAAACGGCAUGAU [#15 K4 Theophylline A Same State]	179	164	174	157	150
GGAUAGGACACAGGAUAUGGGCUAGGCAAGAAUAACUUGUCUAGCAAAUCCAUGAGGAGUGAUGUUCCAGAAGGGUGUCCUAUCG [FmnBX 1 C11+G75]	431	111	94.9	97.3	86.7
AGAGUUAUGCGAGGAUAUGCGGUUAGUACUCAAAGAGUACUAACGCAGAGUGAUGUUCUGUGAAACGCAGAAGGUGCAUAACUCA [Omei KL FMN B SS B v3]	153	216	280	238	229
UAUUCUUAUCUUAGUUGAUUUCUAAUUAAACGAGGACCGGUACGGCCGCCACUCGGUUAUGAGUGAUGUUCAUGGAAUUACAUAA [JR_SSTryptoA_Sub020]	275	481	413	548	143
GGAUAGGAUAGAGGAUAUGGAUUAGGCAAGAAUAACUUGUCUUGUAAAUCCAUGAGGAGUGAUGUUCCAGAAGGCUGUCCUAUCG [MatMod 6 - Jieux - Exclusion - FMN B]	233	113	116	117	94.3
UGGGAUGUUAAAGGAUAUAGCAAGUGAUAUAAGAAAGUGAGUGAUGUUUAUGUAGGUGAUGAUAUGUUAGAAGGUUAACAAAACG [abcdefgh]	296	158	211	185	218
UUUUAAAUGUCUGAUACCAGAGAAAAUUUAUGUAGUGAUGUUAUAUACAAAAUAAAUAAGCUCCCUUGGCAGCAGUAUUAAUUUU [AstrosExc-TheB#7]	465	449	465	357	442
UGUCAUUGGUCUGAUACCAGUCCCUUGGCAGCCAAAUGGAGUGAUGUUCCAAGGAUACCAGACCCUUGGCAGCAGACCGAUGACU [TheoBS 26 #DoubleAptamer #SwitchBubble]	556	397	552	377	499
UGAUACCAGACUGAUACCAGCCAGUGAUGUUGGCUAAAACCAAAAGCUGGCAAAGCCAGCGGCCCUUGGCAGCAGUCUGGUAUCU [TheoBX 1 #SwitchBubble #StaticStem]	816	694	806	1010	667

Sequence	apparent KD of K4 kissing-loop reporter (input ligand: FMN 200 uM) [nM]	apparent KD of K4 kissing-loop reporter (input ligand: arginine 13.2 mM) [nM]	apparent KD of K4 kissing-loop reporter (input ligand: none) [nM]	apparent KD of K4 kissing-loop reporter [1] [nM]	apparent KD of K4 kissing-loop reporter [2] [nM]
AAACGCUGUGAAUAACACAGCGAAAAUUCGCGAGGACCGGUACGGCCGCCACUCGCUAACUGCGAGUGAUGUUCGAUAAUAAAAU [Mat - Mod of OpenEnded 3 - D11]	182	94.8	198	210	105
GUAGCACUUGACAGUGAUGUUGUCAAGGACAAGGAUAUCAUCUCAAUGAGAAGGUGUCCUUGAUAACAGCUACGGGAAUAUCCCA [Omei KL FMN A Exc D v3]	312	108	136	120	123
AGUAAUGAGUGAUGUUCAAUUAGUAAGGAUACCAGUAAUUCAAAAUGCCCUUGGCAGCUUAACGCUACCAAUAGAUUAAUAAUGG [First try - Theophylline A]	128	180	119	182	95.5
AAAAUAAAUCAGUGAUGUUGGUAUCCGGAUACCAGCGAUAAUCAUCGCCCUUGGCAGCCGUGGACGUACAAAAUAAGUACGUCCU [MatMod 16 - Jieux - Same State - Theophylline A]	137	104	168	171	183
AAGUCAUAGGCAGGAUAUGCAUUGUAAUAAGGCAAUAUAUACGUAUAGAGUGAUGUUUUGUACCAGGCAGAAGGGCUACAUCAGU [FMN B Excl V10 (+5A/U)]	674	383	652	491	416
AAAAGCCUACAGGAUACCAGCCGAAUACUAAAAGGCUGGAGUGAUGUUCCAGCUUGCCGCGGCCCUUGGCAGCCUAGCUGGGUGA [Soatriti]	248	258	507	341	286
AGUAGUUGGACGGCCGCCACUAGAACGGCUUUGCCAAAGGCAGAGCACUAGAGUGAUGUUCUAGCUAGGACCGGGUCCAACUACA [Omei KL Tryp B SS A v3]	662	204	191	403	773
AAACCCAGUGAUGUUGGGAAUCAGUUGAGGGAGGAUAUUGGUAAUACAAGAAGGCCCGGCUGCGGGUGAUGUUCGCAUUAGGGCC [Exclusion FMN A GF17]	160	157	152	154	140
UUGAGCCGGACCGAAGUCCGGCUCUGCGAGCGAGGACCGGUACGGCCGCCACUCGGUGCAGUGAUGUUGCAUGGCCGCAAGGCCG [#2 Exclusion - Tryptophan A Attempt #8 (HarryS)]	424	286	418	339	401
UGAUACCAGACGGCCGCCACUAGAGCUAGCAAAGCUAGCAAGUGAUGUUUGAGGAGUGAUGUUCCUAGGACCGGGUCUGGUAUCU [TrypBX 2 #Palindromic #SwitchBubble #StaticStem]	103	85.5	96.2	86.8	39.9
AUUUUUUUGUCAGGAUAUUAGUGUGGGUUUGGUUUGUUAGUGAUGUUGAUAUUUGGUUUAUGUAUUUAAGAAGGGAUUUAGCGGU [frrvemullin]	563	359	408	492	375
CCAUCGCUAUUCGAUACCAGUCUACGUAGGAAACUACGUCUGCAAAGGAGUGAUGUUCCAGACCCUUGGCAGCGAAUAGUGAUGG [Theophylline B K4 5]	969	689	792	589	900
AAUAAAAGAUGUUUAGGAAAGCAAAUGGAAGGAGCGUGCGAAAGCACAGGUAGGUCGCCAGUGAUGUUGGCACCUGAGCAUCAAA [#SwitchBubble 18 #K4Late]	251	285	303	336	264
UUGUUUGGUUGAGAGGUUGGGCGAGAUGAUACCAGUAGAGAAGAGUACCCUUGGCAGCAUAGGAAAGAUAUAGUGAUGUUGUAUA [SSTheophA.Q]	354	313	357	165	309
AGGUGCUACGGAAGGAGCGCACCAGUGAUGUUGGUGUGUGACCGUGACAUGGCAGUCAAGGUGCAGGUAGGUCGCCGUGGCCAUA [Rigela]	138	135	140	156	136
UUUAUAUUGUCGGCCGCCACUGGAUUAAUAUUUGUAUAAUCUAGUUCAAAGUGAUGUUUUGAGUCCAGGACCGGGACAUUUGAUA [JR_Nu_ExcTryptoB_Sub029]	622	501	624	575	491
GAAACGUUGCGGACUAUCGCAUAAAGUCACCGAGGACCGGUACGGCCGCCACUCGCCAGUGAUGUUGGCGUGUUUGCGCGCUGUG [Titebebi]	104	94	95.4	101	178
AAGUGUGUGGCGGCCGCCACUAGAAUCCAGUGAUGUUGGAGAUAUCACGUAAGUGAUAUCCAACAUAGGACCGGGCCAUAUAGAA [Same State - Tryptophan B (Freestyle 12)]	142	111	80.3	210	95.5
UGUCAUUGGUCGGCCGCCACUUCGUGUGGAGUGAUGUUUUGUAGGUUGUGUUGAAAGGUAUGGUGAAGGACCGGGACCGAUGACU [FiskerMod 20 - Jieux - Same State - Tryptophan B]	651	384	496	1080	525
AAAAUAAACCAGUGAUGUUGGUAACCAGAUACCAGCGACGAAAGUCGCCCUUGGCAGCUGUGGACGUACAAAAUAAGUACGUCCU	218	264	257	223	199
UCUGGAGCAUAUGAUACCAGCAGUGAGAGACAGGAAGUAUAGUGAUGUUAUAUGAGAGAAUGCCCUUGGCAGCGUGUGCAGUGGG [SSTheophylB.O]	119	157	108	119	75.2
